Source: patent US20230227577A1 (MYTHIC THERAPEUTICS, published 2023)
Blank lines part the entries; values can stand above or below the binder they belong to.

Tests used:
[1] = biological target: T1, mouse DLL3 protein (mouse, UniProt O88516 33-490, limits assumed); test: Octet (DLL3 on AR2G tips), ELISA and FACS; values only in FIG. 3
T1 construct: also called murine DLL3
T1 sequence (looked up): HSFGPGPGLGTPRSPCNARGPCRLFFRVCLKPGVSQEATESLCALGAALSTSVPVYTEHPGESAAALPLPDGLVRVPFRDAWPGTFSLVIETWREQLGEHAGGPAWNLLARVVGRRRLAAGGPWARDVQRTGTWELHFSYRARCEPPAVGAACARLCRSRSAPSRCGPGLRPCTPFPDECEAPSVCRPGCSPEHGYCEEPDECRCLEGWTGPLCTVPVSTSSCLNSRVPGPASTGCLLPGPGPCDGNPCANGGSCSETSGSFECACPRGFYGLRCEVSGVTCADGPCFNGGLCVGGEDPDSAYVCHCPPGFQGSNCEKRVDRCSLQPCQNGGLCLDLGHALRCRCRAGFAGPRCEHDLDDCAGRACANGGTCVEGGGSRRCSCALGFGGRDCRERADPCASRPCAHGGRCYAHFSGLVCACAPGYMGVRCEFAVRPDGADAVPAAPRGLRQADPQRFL

[2] = biological target: T2, mouse DLL3 on CHO cells (mouse, UniProt O88516 33-592); test: flow cytometry (FACS) on CHO cells expressing mouse DLL3
T2 construct: whole, on cells; also called CHO cells expressing mouse DLL3
T2 sequence (looked up): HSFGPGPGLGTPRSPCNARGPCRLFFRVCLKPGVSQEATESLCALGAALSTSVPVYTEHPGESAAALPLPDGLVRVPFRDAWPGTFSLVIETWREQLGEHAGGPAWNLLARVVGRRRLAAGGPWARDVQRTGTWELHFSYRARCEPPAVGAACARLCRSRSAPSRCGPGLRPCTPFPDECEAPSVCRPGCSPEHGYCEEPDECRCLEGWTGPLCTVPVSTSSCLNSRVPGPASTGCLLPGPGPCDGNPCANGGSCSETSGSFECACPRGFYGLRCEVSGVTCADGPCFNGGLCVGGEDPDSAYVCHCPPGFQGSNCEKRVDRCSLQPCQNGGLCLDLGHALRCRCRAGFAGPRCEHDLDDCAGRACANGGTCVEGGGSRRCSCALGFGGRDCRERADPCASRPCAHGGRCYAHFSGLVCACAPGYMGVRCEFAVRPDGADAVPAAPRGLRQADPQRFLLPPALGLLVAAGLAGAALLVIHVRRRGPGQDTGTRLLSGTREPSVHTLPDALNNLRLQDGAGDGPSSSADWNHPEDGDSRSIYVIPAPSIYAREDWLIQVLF
Procedure: (§1) Additional experiments were carried out to further characterize the binding properties of the anti-DLL3 constructs. Binding properties tested include dissociation constant (KD), off-rate (koff), binding to DLL3 protein by ELISA and binding to CHO cells expressing human, cyno or mouse DLL3. To obtain off-rate (koff), human biotinylated DLL3 was immobilized on Octet SA tips, and cynomolgus or mouse DLL3 was immobilized on Octet AR2G tips. For each DLL3 protein, the binding to a dilution series of each anti-DLL3 construct was measured using Fortebio Octet Red. The dissociation constant (KD), off-rate (koff) and other kinetic parameters for each anti-DLL3 construct were calculated using a 1:1 binding model. In addition, binding of these anti-DLL3 constructs to CHO cells expressing human, cyno or mouse DLL3 protein was analyzed using flow cytometry (FACS).

[3] = biological target: T3, DLL3 target antigen coated on Octet SA tips (binning experiment) (Homo sapiens (Human), UniProt Q9NYJ7 27-492, Probably biotinylated for capture on streptavidin (SA) tips. The site is not stated.); test: Octet binning on DLL3-coated SA tips; competitor: 3HCE4
T3 sequence: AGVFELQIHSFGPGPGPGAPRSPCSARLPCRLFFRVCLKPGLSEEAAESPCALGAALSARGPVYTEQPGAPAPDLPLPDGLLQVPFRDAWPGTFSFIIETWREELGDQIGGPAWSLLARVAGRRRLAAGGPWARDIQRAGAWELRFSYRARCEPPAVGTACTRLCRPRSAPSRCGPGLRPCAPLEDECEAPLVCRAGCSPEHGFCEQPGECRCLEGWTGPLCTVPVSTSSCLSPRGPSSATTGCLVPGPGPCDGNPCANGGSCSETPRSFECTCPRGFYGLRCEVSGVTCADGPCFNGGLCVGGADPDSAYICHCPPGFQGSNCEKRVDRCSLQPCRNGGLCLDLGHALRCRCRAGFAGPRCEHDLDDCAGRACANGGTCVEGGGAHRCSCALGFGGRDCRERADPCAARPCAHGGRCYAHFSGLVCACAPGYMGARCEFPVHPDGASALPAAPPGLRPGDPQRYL
Procedure: (§2) Antibody binning experiments were carried out for 5 anti-DLL3 VHHs and an anti-human DLL3 BiTE (SEQ ID NO: 756). The target antigen was coated on a series of Octet SA tips. Each series of tips was first soaked in a periplasmic extract containing one specific VHH. After the response signals reached saturation, the tips were transferred to a mix of PEs containing again the first VHH (at the same concentration) plus a different VHH (termed secondary VHH) for each tip of the series. Secondary VHH that still bind the target antigen in the presence of the first VHH will show an increased response, as compared to the binding response of the first VHH alone. This was repeated for each VHH as primary VHH until all VHH were tested against each other in both directions (as primary and as secondary binder). From the response data, the bins were deduced for each VHH. 2HCE117 and 3HCE4 show competition with the human DLL3 BiTEs, whereas 3HCE56 and 3HCE87 show a partial competition.

[4] = biological target: T3, DLL3 target antigen coated on Octet SA …; test: Octet binning on DLL3-coated SA tips; competitor: 2HCE27
Procedure: as §2

[5] = biological target: T3, DLL3 target antigen coated on Octet SA …; test: Octet binning on DLL3-coated SA tips; competitor: 3HCE56
Procedure: as §2

[6] = biological target: T3, DLL3 target antigen coated on Octet SA …; test: Octet binning on DLL3-coated SA tips; competitor: 3HCE87
Procedure: as §2

[7] = biological target: T3, DLL3 target antigen coated on Octet SA …; test: Octet binning on DLL3-coated SA tips; competitor: 2HCE117
Procedure: as §2

[8] = biological target: T3, DLL3 target antigen coated on Octet SA …; test: Octet binning on DLL3-coated SA tips; competitor: DLL3 BiTEs
Procedure: as §2

[9] = biological target: T4, DLL3 (ELISA DLL3); test: ELISA, ratio of the signal on DLL3 to the signal on the control
T4 construct: also called DLL3 protein in ELISA
T4 chain: T3 sequence

[10] = biological target: T5, recombinant human DLL3 protein (human, UniProt Q9NYJ7 27-492, limits assumed); test: Fortebio Octet Red, DLL3 immobilised on tips, dilution series of the VHH, 1:1 binding model; KD error 1.32E-09; Full R2 0.9111
T5 construct: also called rhu DLL3; human biotinylated DLL3
T5 sequence (looked up): T3 sequence
Procedure: as §1

[11] = biological target: T5, recombinant human DLL3 protein; test: Fortebio Octet Red, DLL3 immobilised on tips, dilution series of the VHH, 1:1 binding model; kon error 7.26E+01; Full R2 0.9111
Procedure: as §1

[12] = biological target: T5, recombinant human DLL3 protein; test: Fortebio Octet Red, DLL3 immobilised on tips, dilution series of the VHH, 1:1 binding model; koff error 2.95E-06; Full R2 0.9111
Procedure: as §1

[13] = biological target: T5, recombinant human DLL3 protein; test: Fortebio Octet Red, DLL3 immobilised on tips, dilution series of the VHH, 1:1 binding model; KD error 7.00E-11; Full R2 0.9522
Procedure: as §1

[14] = biological target: T5, recombinant human DLL3 protein; test: Fortebio Octet Red, DLL3 immobilised on tips, dilution series of the VHH, 1:1 binding model; kon error 2.27E+03; Full R2 0.9522
Procedure: as §1

[15] = biological target: T5, recombinant human DLL3 protein; test: Fortebio Octet Red, DLL3 immobilised on tips, dilution series of the VHH, 1:1 binding model; koff error 5.76E-06; Full R2 0.9522
Procedure: as §1

[16] = biological target: T5, recombinant human DLL3 protein; test: Fortebio Octet Red, DLL3 immobilised on tips, dilution series of the VHH, 1:1 binding model; KD error 2.22E-11; Full R2 0.9955
Procedure: as §1

[17] = biological target: T5, recombinant human DLL3 protein; test: Fortebio Octet Red, DLL3 immobilised on tips, dilution series of the VHH, 1:1 binding model; kon error 9.86E+02; Full R2 0.9955
Procedure: as §1

[18] = biological target: T5, recombinant human DLL3 protein; test: Fortebio Octet Red, DLL3 immobilised on tips, dilution series of the VHH, 1:1 binding model; koff error 2.13E-06; Full R2 0.9955
Procedure: as §1

B1: 2HCE117 anti-DLL3 VHH (VHH)
VHH: QVQLQESGGGLVQPGGSLRLSCAASGFTFSSYAMSWVRQAPGKGLEWVSDINSGGGSTYYADSVKGRFTISRDNAKNTLYLQMDSLKPEDTAVYYCATPFEIGSWGQGTQVTVSS
notes: In the binning assay it was used as a periplasmic extract
binding result [1]: binds
binding result [2]: binds
binning response (unit not given) [3]: -90.1
binning response (unit not given) [4]: -73
binning response (unit not given) [5]: -207
binning response (unit not given) [6]: -98.7
binning response (unit not given) [7]: 0
binning response (unit not given) [8]: -23.2
DLL3 / control [9]: 29.4
Kd [10]: 101 nM
kon [11]: 5960 M⁻¹ s⁻¹
koff [12]: 0.0006 s⁻¹

B2: anti-human DLL3 BiTE (bispecific antibody)
chain: QVQLQESGPGLVKPSETLSLTCTVSGGSISSYYWSWIRQPPGKGLEWIGYVYYSGTTNYNPSLKSRVTISVDTSKNQFSLKLSSVTAADTAVYYCASIAVTGFYFDYWGQGTLVTVSSGGGGSGGGGSGGGGSEIVLTQSPGTLSLSPGERVTLSCRASQRVNNNYLAWYQQRPGQAPRLLIYGASSRATGIPDRFSGSGSGTDFTLTISRLEPEDFAVYYCQQYDRSPLTFGGGTKLEIK
notes: also called DLL3 BiTEs
binning response (unit not given) [3]: 121
binning response (unit not given) [4]: 82.5
binning response (unit not given) [5]: 1500
binning response (unit not given) [6]: 125
binning response (unit not given) [7]: 1280
binning response (unit not given) [8]: 0

The next lines start with the values.

binding result [1]: binds
binding result [2]: binds
binning response (unit not given) [3]: -54.4
binning response (unit not given) [4]: -48.2
binning response (unit not given) [5]: 204
binning response (unit not given) [6]: 0
binning response (unit not given) [7]: 1210
binning response (unit not given) [8]: 68.3
DLL3 / control [9]: 18.8
Kd [13]: 5.35 nM
kon [14]: 192000 M⁻¹ s⁻¹
koff [15]: 0.00103 s⁻¹
B3: 3HCE87 anti-DLL3 VHH (VHH)
VHH: QVQLQESGGGLVQAGGSLRLSCAASGFIFDDYIIGWFRQAPGKEREFVAAISWSGSATAYADSVKGRFTISRDNAKNTLYLQMNTLKPEDTAVYYCAASSRGPYNSGSSYDYWGQGTQVTVSS
notes: as for B1

binding result [1]: binds
binding result [2]: binds
binning response (unit not given) [3]: 0
binning response (unit not given) [4]: 347
binning response (unit not given) [5]: 407
binning response (unit not given) [6]: 120
binning response (unit not given) [7]: 3510
binning response (unit not given) [8]: 9.03
DLL3 / control [9]: 65.7
Kd [16]: 5.15 nM
kon [17]: 249000 M⁻¹ s⁻¹
koff [18]: 0.00128 s⁻¹
B4: 3HCE4 anti-DLL3 VHH (VHH)
VHH: QVQLQESGGGLVQAGASLKLSCAVSGRAGSSYDMGWLRQAPGKEREFVAIITWSGNTAYKDSVKGRFIISRDNAKNTVYLEMNSLAPEDTAVYYCAAALSEKKYEYWGQGTQVTVSS
notes: as for B1
